{
  "source": "paper PMC3828642",
  "about": "“1-Aminocyclopropane-1-carboxylic acid oxidase reaction mechanism and putative post-translational activities of the ACCO protein” (AoB Plants, 2013)",
  "substrate": "NC1(C(=O)O)CC1",
  "experiment": "purified protein",
  "details": "Fe(II), ascorbate, bicarbonate active-site Fe(II); Arg175, Arg244 and Ser246 affect ACC binding",
  "data": [
    {"protein": "1-aminocyclopropane-1-carboxylic acid oxidase (ACCO1) (Malus domestica) (protein) MATFPVVDLSLVNGEERAATLEKINDACENWGFFELVNHGMSTELLDTVEKMTKDHYKKTMEQRFKEMVAAKGLDDVQSEIHDLDWESTFFLRHLPSSNISEIPDLEEEYRKTMKEFAVELEKLAEKLLDLLCENLGLEKGYLKKVFYGSKGPNFGTKVSNYPPCPKPDLIKGLRAHSDAGGIILLFQDDKVSGLQLLKDGEWVDVPPMHHSIVINLGDQIEVITNGKYKSVMHRVIAQSDGTRMSIASFYNPGNDSFISPAPAVLEKKTEDAPTYPKFVFDDYMKLYSGLKFQAKEPRFEAMKAKESTPVATA", "values": [
      {"measurement": "Km", "result": 51, "unit": "µM"}
    ]}
  ]
}
